In PMC6331805:

Target: T1, NtcA (Synechocystis sp. PCC 6803) (UniProt P33779)
T1 sequence: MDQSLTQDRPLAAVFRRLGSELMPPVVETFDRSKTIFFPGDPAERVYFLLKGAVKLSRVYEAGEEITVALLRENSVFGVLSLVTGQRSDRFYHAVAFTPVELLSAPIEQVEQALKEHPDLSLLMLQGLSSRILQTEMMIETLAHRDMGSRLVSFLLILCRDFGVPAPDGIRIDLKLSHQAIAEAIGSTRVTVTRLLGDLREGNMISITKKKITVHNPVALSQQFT
Assay: EMSA
Conditions: Roche DIG Gel Shift kit buffer (composition and pH not stated), 2 ng DIG-labeled DNA, 15 min at room temperature, native 8% PAGE; 5 mM MgCl2 in 2-oxoglutarate …

Row | Sequence | binding
1 | ACTCTGACGTACCCATTGACGGGGTAACTTACTCAAGCTAAAAGGTAAAGAATTGTAAACTAAGTTAATTATCCCAGGAAATCCCATGAG (double strand) [scpE promoter fragment 90 bp] | binds
2 | TTTGAGCCTAACATTATCCTCCCGTTGCCTTTTTCACCACAGACTTGCCATGGGCGCAATACTCTGTTACATTTATTTACATAGACAACCCTCCCAGCTCGTAATTACAT (double strand) [scpB promoter fragment 110 bp] | binds
